{"source": "patent US20090170069", "about": "“Cell free methods for detecting protein-ligand binding” (The Arizona Board of Regents on behalf of the University of …, published 2009)", "binders": {"B1": {"name": "Aart competitor hairpin, consensus (dsDNA)", "DNA": "GCATGTAGGGAAAAGCCCGGCGTCCTCGCCGGGCTTTTCCCTACATGC"}, "B2": {"name": "Aart competitor hairpin, consensus ATA (dsDNA)", "DNA": "B1 DNA with A13T, T36A"}, "B3": {"name": "Pum1-E2C hairpin-guide (dsDNA)", "DNA": "GAGGGGCCGGAGCCGCAGTGCGTCCTCGCACTGCGGCTCCGGCCCCTCAAAACTATATACACCATG"}, "B4": {"name": "Aart competitor hairpin, designed ATA (dsDNA)", "DNA": "GCATGTAGAGAATAACCAGGCGTCCTCGCCTGGTTATTCTCTACATGC"}, "B5": {"name": "Pum2-Aart hairpin-guide (dsDNA)", "DNA": "GCCGCTATATCAAAAAACTCCGGGCTTTTCCCTACATGCTCCTGCATGTAGGGAAAAGCCCGGAG"}, "B6": {"name": "VEGF60-78-E2C hairpin-guide (dsDNA)", "DNA": "GAGGGGCCGGAGCCGCAGTGCGTCCTCGCACTGCGGCTCCGGCCCCTCAAAAGAAGATGTCCACCAGGGTC"}, "B7": {"name": "VEGF81-99-Aart hairpin-guide (dsDNA)", "DNA": "GATCTCATCAGGGTACTCCAAAACTCCGGGCTTTTCCCTACATGCTCCTGCATGTAGGGAAAAGCCCGGAG"}, "B8": {"name": "E2C-HER2 100-118 hairpin-guide (dsDNA)", "DNA": "GAGGGGCCGGAGCCGCAGTGCGTCCTCGCACTGCGGCTCCGGCCCCTCAAAACGGCACAGACAGTGCGCGT"}, "B9": {"name": "HER2 122-140-Aart hairpin-guide (dsDNA)", "DNA": "CCCTTGCAGCGGGCACAGCAAAACTCCGGGCTTTTCCCTACATGCTCCTGCATGTAGGGAAAAGCCCGGAG"}}, "key": {"[1]": {"biological_target": "Aart-NFluc (six-finger zinc finger Aart) (synthetic)", "sequence (chain, as listed by the source)": "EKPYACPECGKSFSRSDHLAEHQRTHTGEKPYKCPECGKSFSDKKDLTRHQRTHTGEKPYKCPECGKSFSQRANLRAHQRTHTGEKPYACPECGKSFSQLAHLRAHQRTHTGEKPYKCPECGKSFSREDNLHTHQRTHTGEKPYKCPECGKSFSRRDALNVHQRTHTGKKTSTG", "assay": "competition; competes with E2C-1-Aart in split-luciferase assay with CFluc-E2C; IC50 only in figure; reference hairpin", "settings": "tags: N-terminal His tag, C-terminal NFluc(2-416) split luciferase fragment"}, "[2]": {"biological_target": "Aart-NFluc (six-finger zinc finger Aart) (synthetic)", "assay": "competition; single A to T bp substitution in finger 3 triplet", "settings": "tags: N-terminal His tag, C-terminal NFluc(2-416) split luciferase fragment; hairpin"}, "[3]": {"biological_target": "CFluc-E2C (six-finger zinc finger E2C) (synthetic)", "sequence (chain, as listed by the source)": "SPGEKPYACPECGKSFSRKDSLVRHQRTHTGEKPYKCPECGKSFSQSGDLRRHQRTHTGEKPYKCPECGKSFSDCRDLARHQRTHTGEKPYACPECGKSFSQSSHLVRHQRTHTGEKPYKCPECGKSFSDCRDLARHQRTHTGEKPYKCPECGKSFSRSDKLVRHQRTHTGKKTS", "assay": "with Pum2-Aart hairpin-guide and 1 nM target ssRNA or ssDNA; G to T target mutation gives background", "settings": "tags: N-terminal CFluc(398-550) split luciferase fragment; hairpin with ssDNA guide tail"}, "[4]": {"biological_target": "Aart-NFluc (six-finger zinc finger Aart) (synthetic)", "assay": "with Pum1-E2C hairpin-guide and 1 nM target ssRNA or ssDNA; G to T target mutation gives background", "settings": "tags: N-terminal His tag, C-terminal NFluc(2-416) split luciferase fragment; hairpin with ssDNA guide tail"}, "[5]": {"biological_target": "CFluc-E2C (six-finger zinc finger E2C) (synthetic)", "assay": "with VEGF81-99-Aart hairpin-guide and 1 nM VEGF transcript", "settings": "tags: N-terminal CFluc(398-550) split luciferase fragment; hairpin with ssDNA guide tail"}, "[6]": {"biological_target": "Aart-NFluc (six-finger zinc finger Aart) (synthetic)", "assay": "with VEGF60-78-E2C hairpin-guide and 1 nM VEGF transcript", "settings": "tags: N-terminal His tag, C-terminal NFluc(2-416) split luciferase fragment; hairpin with ssDNA guide tail"}, "[7]": {"biological_target": "CFluc-E2C (six-finger zinc finger E2C) (synthetic)", "assay": "with HER2 122-140-Aart hairpin-guide and 1 nM HER2 transcript", "settings": "tags: N-terminal CFluc(398-550) split luciferase fragment; hairpin with ssDNA guide tail"}, "[8]": {"biological_target": "Aart-NFluc (six-finger zinc finger Aart) (synthetic)", "assay": "with E2C-HER2 100-118 hairpin-guide and 1 nM HER2 transcript", "settings": "tags: N-terminal His tag, C-terminal NFluc(2-416) split luciferase fragment; hairpin with ssDNA guide tail"}}, "note": "Positions count from the first letter of the chain named. Names may count otherwise.", "data": [{"binder": "B1", "values": [{"measurement": "binding result", "setting": "[1]", "result": "binds"}]}, {"binder": "B2", "values": [{"measurement": "binding signal", "setting": "[2]", "result": "60 fold reduced vs consensus hairpin"}]}, {"binder": "B3", "values": [{"measurement": "activity", "setting": "[3]", "result": "4.5 fold luminescence over background"}]}, {"binder": "B4", "values": [{"measurement": "binding signal", "setting": "[2]", "result": "20 fold reduced vs designed hairpin"}]}, {"binder": "B5", "values": [{"measurement": "activity", "setting": "[4]", "result": "4.5 fold luminescence over background"}]}, {"binder": "B6", "values": [{"measurement": "activity", "setting": "[5]", "result": 39, "unit": "fold luminescence"}]}, {"binder": "B7", "values": [{"measurement": "activity", "setting": "[6]", "result": 39, "unit": "fold luminescence"}]}, {"binder": "B8", "values": [{"measurement": "activity", "setting": "[7]", "result": "4.3 fold luminescence over hairpin-guides alone"}]}, {"binder": "B9", "values": [{"measurement": "activity", "setting": "[8]", "result": "4.3 fold luminescence over hairpin-guides alone"}]}]}
